Test results as given in the DeepSol protein solubility set.

Test: soluble on expression in E. coli; label from the status in PepcDB or PDB records
For “MDGSFVQHSVRVLQELNKQREKGQYCDATLDVGGLVFKAHWSVLACCSHFFQRIYGDGTGGSVVLPAGFAEIFGLLLDFFYTGHLALTSGNRDQVLLAAKELRVPEAVELCQSFQPQTSVGQAQSGLGQPASQDVKSHLKEPTDLDEEEVFKTLSLASVDQEPRDTEQPQLGTPAQSSTAFLCGKLTQALKPSPSEDKESEDCKEPPRPFEAGGAPLQGESNEWEVVVQVEDDRDGDYVSEPETVLTRRKSKVIRKPCAAEPALGAGSLTAEPTDSRKGAAVPVECPTCHKKFLSKYYLKVHNRKHTGEKPFECPKCGKCYFRKENLLEHEARNCMNRSEQVFTCSVCQETFRRRMELRLHMVSHTGEMPYKCSSCSQQFMQKKDLQSHMIKLHGAPKPHAVSASQGWGSGGSGTAQSCPHLDVLPLPVSPTCSAPLVPSASCLGRSYSCTRLLSIVEKSSLCVRNAGTGPRAATGCRCTSRPSTGMKGLMSVSSAAMPSPRRPTSTCTCARTPARSLSSATSVGRPSAPKFGQAQPHPHGREAFQL”, the “soluble on expression in E. coli” value was “soluble”. For “MGSDKIHHHHHHMRRLPHVTWLRSFEAAARHSSFSAAAEELHLTPAAVSQQIRQLEHHLGFQLFKRLPKGVELTDIGQAYAIPVRKSFVQMQEATDGLFRVQSKSVLRVRCSISFAALILAPLLRDFAEIHPDIDVELSTAVWSDRMEGAGVDLDIRYGAACWPEQNVHPLPVEEATLVCHPDYAAQLGSALDPAWLGAADIVQIVGSETDWDRYLRLCGIDTPRPRHWMKADSSLIALQILSAGRGCALISRSFARQALSEGRLVAPFDLSLPMQESFVLVERDDLRENPGLRKLVDWLLTQRL”, the “soluble on expression in E. coli” value was “not soluble”. For “SQEVMKNLSLNFGKALDECKKEMTLTDAINEDFYNFWKEGYEIKNRETGCAIMCLSTKLNMLDPEGNLHHGNAMEFAKKHGADETMAQQLIDIVHGCEKSTPANDDKCIWTLGVATCFKAEIHKLNWAPSMDVAVGEILAEV”, the “soluble on expression in E. coli” value was “soluble”. With “MSLFIHIVGPGDSLFSIGRRYGASVDQIRGVNGLDETNIVPGQALLIPLYVYTVQPRDTLTAIAAKAFVPLERLRAANPGISPNALQAGAKITIPSISNYIAGTLSFYVLRNPDLDRELINDYAPYSSSISIFEYHIAPNGDIANQLNDAAAIETTWQRRVTPLATITNLTSGGFSTEIVHQVLNNPTARTNLVNNIYDLVSTRGYGGVTIDFEQVSAADRDLFTGFLRQLRDRLQAGGYVLTIAVPAKTSDNIPWLRGYDYGGIGAVVNYMFIMAYDWHHAGSEPGPVAPITEIRRTIEFTIAQVPSRKIIIGVPLYGYDWIIPYQPGTVASAISNQNAIERAMRYQAPIQYSAEYQSPFFRYSDQQGRTHEVWFEDVRSMSRKMQIVREYRLQAIGAWQLTLAEGHHHHHH” the “soluble on expression in E. coli” value was “soluble”. For “MNPIVKAPTLNDLPAPPPGKTGWPWTEQNEALPEKMPDGSDWPKISIVTPSYNYGQFIEETIRSVLLQGYPNLEYIVVDGGSTDNTVTIIRKYEKYLKYWASEPDHGQTDAINKGYRYCSGDVFAWLNADDLYYDQSTLLKVINFYQKGYDLIVGECLNINADGTHFNQAITSTEKSDPTYFKKYLRYWSSGFLPQPAIFVKKEMADQCFPLSIELYYAMDFQFFLRVLNQEPKSVWIQEKLTRLRWHEDSKTMGTISRIDFHAIVPEPEVHKVALAEAENLPTWLEKIFFRIQAFDYLSLQPYINSLDNFHWLQITKTIVKRPTLAVWPLFWKIFFRSLLGEQIYKLLKRTIRTNLEHHHHHH”, the “soluble on expression in E. coli” value was “not soluble”. With “MGSDKIHHHHHHMKEHEVVGIDRTPCSTADVVGDIRDTALLAEALEGVEVIIHTAALHAPHVGLVPGDEFEEINIKATEQLALMGVKKGIKHFVFTSTTALYGFASTPAGRAGWVDETVMPRPKTIYHHSKIKAEQLLENISSSFDLPVTVLQMSRCFPEPVNLMAVYRLTRGIDARDVARAHACAVERRLSGFRRYIISGKTPFSKACCERLYRDANDVIREAIPGLAESFAVRGWSMPQSLDRVYDSSLAQHELGWQPKYGYESVLSLLDNESAEVLPMKSQS” the “soluble on expression in E. coli” value was “not soluble”.
